Results taken from paper PMC314469, “Protein Interaction Networks by Proteome Peptide Scanning” (PLoS Biology, 2004).

T1: Yhr016c SH3 (YSC84_YEAST), P32793
T1 chain: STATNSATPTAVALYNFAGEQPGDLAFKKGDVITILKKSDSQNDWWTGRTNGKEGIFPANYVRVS

T2: Yfr024 SH3 (LSB3_YEAST), P43603
T2 chain: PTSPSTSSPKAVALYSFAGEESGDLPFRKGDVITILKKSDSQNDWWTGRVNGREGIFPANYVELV

T3: Myo5 SH3 (MYO5_YEAST), Q04439
T3 chain: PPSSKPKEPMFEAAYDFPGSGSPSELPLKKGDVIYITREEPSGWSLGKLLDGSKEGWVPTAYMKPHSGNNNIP

T4: Rvs167 SH3 (RV167_YEAST), P39743
T4 chain: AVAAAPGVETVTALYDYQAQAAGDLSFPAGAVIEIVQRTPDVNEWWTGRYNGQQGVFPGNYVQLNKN

T5: Boi2 SH3 (BOI2_YEAST), P39969
T5 chain: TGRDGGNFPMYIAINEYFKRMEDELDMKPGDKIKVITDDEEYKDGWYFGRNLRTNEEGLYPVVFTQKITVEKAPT

T6: Boi1 SH3 (BOI1_YEAST), P38041
T6 chain: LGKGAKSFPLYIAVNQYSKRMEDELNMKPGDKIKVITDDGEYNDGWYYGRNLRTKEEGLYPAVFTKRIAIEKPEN


Legend:
Experiment in all cases: SPOT array
[1] = molecular target: T1, Yhr016c SH3 (YSC84_YEAST), P32793
[2] = molecular target: T2, Yfr024 SH3 (LSB3_YEAST), P43603
[3] = molecular target: Sho1 SH3 (SHO1_YEAST), P40073
[4] = molecular target: T3, Myo5 SH3 (MYO5_YEAST), Q04439
[5] = molecular target: T4, Rvs167 SH3 (RV167_YEAST), P39743
[6] = molecular target: T5, Boi2 SH3 (BOI2_YEAST), P39969
[7] = molecular target: T6, Boi1 SH3 (BOI1_YEAST), P38041

Chain of Sho1 SH3 (SHO1_YEAST), P40073 (P40073 295-366): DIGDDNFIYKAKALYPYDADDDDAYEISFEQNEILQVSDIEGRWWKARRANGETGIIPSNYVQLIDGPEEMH

normalised SPOT signal, Boehringer light units (BLU); mean over the file's lines of this peptide [1] | normalised SPOT signal, Boehringer light units (BLU); mean over the file's lines of this peptide [2] | normalised SPOT signal, Boehringer light units (BLU); mean over the file's lines of this peptide [3] | normalised SPOT signal, Boehringer light units (BLU); mean over the file's lines of this peptide [4] | normalised SPOT signal, Boehringer light units (BLU); mean over the file's lines of this peptide [5] | normalised SPOT signal, Boehringer light units (BLU); mean over the file's lines of this peptide [6] | normalised SPOT signal, Boehringer light units (BLU); mean over the file's lines of this peptide [7] | Binder
179 | 1670 | 81.5 | 163 | 897 | 962 | 11.5 | WLDEKRIPSTPIDY [YPR145W 196-209]
131 | 1350 | 31.7 | 1270 | 43.8 | 30.6 | 12.8 | WFILKLFPHEPIEG [YMR034C 292-305]
1880 | 9510 | 3290 | 379 | 2780 | 1740 | 52300 | WEALKSVPIPPRKN [YJR113C 98-111]
278 | 3060 | 191 | 240 | 177 | 184 | 107 | WLDEKRIPSTPVDY [YGR124W 196-209]
125 | 862 | 62.8 | 88.8 | 149 | 70.7 | 66.1 | WLGNKYDPENPFND [YBL088C 600-613]
201 | 4860 | 19600 | 102 | 278 | 409 | 78.2 | WFDLKGLPRQPEPL [YFL041W 550-563]
140 | 2790 | 38.9 | 96.8 | 82 | 81.2 | 104 | WENFKEEPGEPLSR [YMR227C 326-339]
